Measured values: paper PMC9409277, “Ethyl Vinyl Ketone Activates K^+ Efflux to Regulate Stomatal Closure by MRP4-Dependent eATP Accumulation Working Upstream of H2O2 Burst in Arabidopsis” (International Journal of Molecular Sciences, 2022)

B1: DORN1-GST (DORN1 residues 344-616 in pGEX-4T-1) (domain or fragment, Arabidopsis, UniProt Q9LSR8 344-616, looked up)
chain: FSKDEFLGKGGFGEVYRGNLPQGREIAVKRVSHNGDEGVKQFVAEVVSMRCLKHRNLVPLFGYCRRKRELLLVSEYMPNGSLDEHLFDDQKPVLSWSQRLVVVKGIASALWYLHTGADQVVLHRDVKASNIMLDAEFHGRLGDFGMARFHEHGGNAATTAAVGTVGYMAPELITMGASTGTDVYAFGVFMLEVTCGRRPVEPQLQVEKRHMIKWVCECWKKDSLLDATDPRLGGKFVAEEVEMVMKLGLLCSNIVPESRPTMEQVVLYLNKNL
notes: DORN1 of Arabidopsis (AT5G60300), residues 344-616; Printed both as DORN1-GST and as GST–DORN1; cloned into pGEX-4T-1 via EcoRI/XhoI; also called DORN-GST; source: E. coli Rosetta (DE3), on glutathione beads
B2: RBOHF-His (RBOHF residues 1-387 in pET28A) (protein)
chain: MKPFSKNDRRRWSFDSVSAGKTAVGSASTSPGTEYSINGDQEFVEVTIDLQDDDTIVLRSVEPATAINVIGDISDDNTGIMTPVSISRSPTMKRTSSNRFRQFSQELKAEAVAKAKQLSQELKRFSWSRSFSGNLTTTSTAANQSGGAGGGLVNSALEARALRKQRAQLDRTRSSAQRALRGLRFISNKQKNVDGWNDVQSNFEKFEKNGYIYRSDFAQCIGMKDSKEFALELFDALSRRRRLKVEKINHDELYEYWSQINDESFDSRLQIFFDIVDKNEDGRITEEEVKEIIMLSASANKLSRLKEQAEEYAALIMEELDPERLGYIELWQLETLLLQKDTYLNYSQALSYTSQALSQNLQGLRGKSRIHRMSSDFVYIMQENWKR

Tests used:
[1] = biological target: T1, RBOHF-His (RBOHF residues 1-387 in pET28A) (Arabidopsis, UniProt O48538 1-387); assay: pull-down; glutathione beads with 50 µg DORN1-GST or GST incubated with 50 µg RBOHF-His; 1% NP40, 150 mM NaCl, 50 mM Tris-HCl, 1 mM EDTA, pH 7.5; 4 °C, 2 h; immunoblot with anti-GST and anti-His; settings: both partners purified
T1 construct: RBOHF of Arabidopsis (AT1G64060), residues 1-387; Cloned into pET28A via EcoRI/XhoI; also called RBOHF with His tag; source: E. coli Rosetta (DE3)
T1 sequence (looked up): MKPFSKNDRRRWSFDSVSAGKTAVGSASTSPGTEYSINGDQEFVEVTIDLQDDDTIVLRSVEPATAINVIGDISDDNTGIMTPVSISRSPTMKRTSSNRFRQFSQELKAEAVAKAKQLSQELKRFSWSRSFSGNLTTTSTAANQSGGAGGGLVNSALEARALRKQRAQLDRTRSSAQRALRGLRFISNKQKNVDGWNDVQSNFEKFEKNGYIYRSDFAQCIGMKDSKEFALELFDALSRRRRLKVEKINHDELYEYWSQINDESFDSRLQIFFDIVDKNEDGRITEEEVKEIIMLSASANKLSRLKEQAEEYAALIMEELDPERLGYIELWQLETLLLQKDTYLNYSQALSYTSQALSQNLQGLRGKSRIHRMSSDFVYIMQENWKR

[2] = biological target: T2, DORN1-GST (DORN1 residues 344-616 in pGEX-4T-1) (Arabidopsis thaliana (Mouse-ear cress), UniProt Q9LSR8); assay: GST pulldown with anti-His immunoblot
T2 chain: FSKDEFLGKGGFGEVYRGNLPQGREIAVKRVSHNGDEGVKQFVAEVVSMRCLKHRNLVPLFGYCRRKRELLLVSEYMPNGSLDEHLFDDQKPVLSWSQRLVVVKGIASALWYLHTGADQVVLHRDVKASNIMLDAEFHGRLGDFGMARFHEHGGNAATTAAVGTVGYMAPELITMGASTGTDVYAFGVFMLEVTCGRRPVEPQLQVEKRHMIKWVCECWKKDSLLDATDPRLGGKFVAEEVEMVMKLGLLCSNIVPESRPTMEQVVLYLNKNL

Binder | binding result [1] | binding result [2]
B1 | binds | 
B2 |  | binds
